Peptide text beside a SMILES is read from it.
B1: HIF2α-CODD A530T peptide (peptide, UniProt Q99814 523-542, looked up)
peptide: Ac-ELDLETLTPYIPMDGEDFQL-NH2
notes: HIF2α (EPAS1) CODD peptide, human, as m3 with the disease mutation A530T (Class 1); also called HIF2α A530T; source: synthetic peptide (Genscript, ≥95% purity)
B2: HIF2α-CODD P534L peptide (peptide, UniProt Q99814 523-542, looked up)
peptide: Ac-ELDLETLAPYILMDGEDFQL-NH2
notes: HIF2α (EPAS1) CODD peptide, human, as m3 with the disease mutation P534L (Class 2); also called HIF2α P534L; source: synthetic peptide (Genscript, ≥95% purity)
B3: HIF2α-CODD Y532H peptide (peptide, UniProt Q99814 523-542, looked up)
peptide: Ac-ELDLETLAPHIPMDGEDFQL-NH2
notes: HIF2α (EPAS1) CODD peptide, human, as m3 with the disease mutation Y532H (Class 2); also called HIF2α Y532H; source: synthetic peptide (Genscript, ≥95% purity)

Target: T1, PHD2 (prolyl-hydroxylase domain, residues 181–426) (Homo sapiens, UniProt Q9GZT9)
T1 construct: encodes for His6-PHD2 (prolyl-hydroxylase domain, residues 181–426); His6 (N, cleaved yes); made in house; host or cells: E. coli BL21(DE3)
T1 sequence (Q9GZT9 181-426): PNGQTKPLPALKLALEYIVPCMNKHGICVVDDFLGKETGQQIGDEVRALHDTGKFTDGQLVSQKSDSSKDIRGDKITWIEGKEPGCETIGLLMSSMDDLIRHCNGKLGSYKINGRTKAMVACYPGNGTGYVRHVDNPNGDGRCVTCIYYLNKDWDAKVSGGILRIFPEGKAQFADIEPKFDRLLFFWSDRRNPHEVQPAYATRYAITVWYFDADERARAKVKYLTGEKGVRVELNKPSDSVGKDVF
Test: Microscale thermophoresis (MST) binding of HIFα-CODD peptides to the catalytic domain of PHD2
Details: MST, with NOG
Description: To determine if there is a direct effect of HIF2α mutations on PHD2 binding, we devised a quantitative method for determining the dissociation constant (Kd) of the HIF2α-CODD peptides and the catalytic domain of PHD2 using microscale thermophoresis (MST)[13],[14] in the presence of the PHD inhibitor n-oxalylglycine (NOG) to inhibit reaction turnover.
PHD2 was purified via a previously described but modified procedure[4],[30]. […] Cells were grown to an OD600 of 0.8 at 37 °C and expression of His6-PHD2 was induced with a final concentration of 0.5 mM IPTG. Cells were grown for an additional 3 h post-induction at 37 °C and harvested via centrifugation. Cell pellets were either used immediately for purification or stored at −80 °C for later use. Cell pellets were resuspended in Lysis Buffer (50 mM Tris–HCl pH 7.9, 500 mM NaCl, 5 mM Imidazole) containing 1x SigmaFast protease inhibitor cocktail (Sigma-Aldrich) and lysed with 3 passes through an Emulsiflex-C3 cell disruptor (Avestin) at 20-30 kPSI. […] Clarified lysates were applied to a 2 ml Ni-NTA (Thermo Scientific) column pre-equilibrated with Lysis Buffer. The beads were washed with 10 ml Lysis buffer and 2 × 30 ml of Wash Buffer (50 mM Tris–HCl pH 7.9, 500 mM NaCl, 30 mM Imidazole). His6-PHD2 was eluted by applying 10 ml Elution Buffer (50 mM Tris–HCl pH 7.9, 500 mM NaCl, 1 M Imidazole) to the column. Ni-NTA purified His6-PHD2 was dialyzed using a 10 kDa cut-off dialysis membrane against 2 L of Dialysis Buffer (50 mM Tris–HCl pH 7.5) for 4 h at 4 °C. […] Dialysis and thrombin cleavage were allowed to continue overnight at 4 °C. Thrombin-cleaved PHD2 was collected and applied to a 2 ml Ni-NTA column pre-equilibrated with Dialysis Buffer to remove uncleaved protein and cleaved His6 tags. The flow-through was collected and the beads were washed with 10 ml of Dialysis Buffer supplemented with 5 mM imidazole. The 5 mM imidazole eluate was pooled with the flow through and concentrated with an Amicon 10 kDa cut-off centrifugal concentrator (Millipore) to a volume of ~600 µl. The concentrated PHD2 was then applied to a Superdex 75 Increase 10/300 GL column (Cytiva) equilibrated with Dialysis Buffer or Labeling Buffer (50 mM HEPES pH 7.5, 150 mM NaCl) depending on the intended use of the sample. Eluted fractions containing PHD2 were collected and pooled. For the His6-PHD2 used in the indirect hydroxylation assay, no thrombin was added during dialysis steps therefore the His6-tag was not removed and the subsequent passage of the sample through Ni-NTA beads to remove His6-tags was not performed. Otherwise, the purification protocol for His6-PHD2 is the same as thrombin-cleaved PHD2. All purification steps were analyzed by SDS–PAGE and the Superdex 75 Increase chromatogram was used to assess size and aggregation, see Supplementary Fig. 5 for a representative purification assessment.
Labeling was conducted at room temperature for 1 h in the dark. Excess dye was then removed first by the passage of the sample through a PD-10 desalting column containing Sephadex G-25 resin (Cytiva) equilibrated with Dialysis Buffer and then any remaining excess dye was removed via repeated 10-fold dilution in Dialysis Buffer and subsequent concentration in an Amicon 10 kDa cut off centrifugal filter until the dye could no longer be detected in the concentrator flow through by Absorbance at 650 nm.
MST measurements were taken using a Monolith NT.115 (Nanotemper Technologies) at room temperature using standard MST capillaries (Nanotemper Technologies). […] For each HIFα-CODD peptide, ~1 mg dry weight of peptide was dissolved in 200 µl of 50 mM Tris–HCl pH 8.0 and concentrations were measured using UV absorbance at 280 nm for most peptides and BCA assay (Thermo Scientific) for Y532C and Y532H peptides using known concentrations of the WT HIF2α-CODD peptide to create a standard curve.

Row | Molecule | PHD2 affinity / Kd compared with another peptide (in words)
1 | CC[C@H](C)[C@H](NC(=O)[C@H](Cc1ccc(O)cc1)NC(=O)[C@@H]1CCCN1C(=O)[C@@H](NC(=O)[C@H](CC(C)C)NC(=O)[C@@H](NC(=O)[C@H](CCC(=O)O)NC(=O)[C@H](CC(C)C)NC(=O)[C@H](CC(=O)O)NC(=O)[C@H](CC(C)C)NC(=O)[C@H](CCC(=O)O)NC(C)=O)[C@@H](C)O)[C@@H](C)O)C(=O)N1CCC[C@H]1C(=O)N[C@@H](CCSC)C(=O)N[C@@H](CC(=O)O)C(=O)NCC(=O)N[C@@H](CCC(=O)O)C(=O)N[C@@H](CC(=O)O)C(=O)N[C@@H](Cc1ccccc1)C(=O)N[C@@H](CCC(N)=O)C(=O)N[C@@H](CC(C)C)C(N)=O [HIF2α A530T] | significant effect on PHD2 binding affinity
2 | CC[C@H](C)[C@H](NC(=O)[C@H](Cc1ccc(O)cc1)NC(=O)[C@@H]1CCCN1C(=O)[C@H](C)NC(=O)[C@H](CC(C)C)NC(=O)[C@H](CCSC)NC(=O)[C@H](CCC(=O)O)NC(=O)[C@H](CC(C)C)NC(=O)[C@H](CC(=O)O)NC(=O)[C@H](CC(C)C)NC(=O)[C@H](CCC(=O)O)NC(C)=O)C(=O)N1CCC[C@H]1C(=O)N[C@@H](CCSC)C(=O)N[C@@H](CC(=O)O)C(=O)NCC(=O)N[C@@H](CCC(=O)O)C(=O)N[C@@H](CC(=O)O)C(=O)N[C@@H](Cc1ccccc1)C(=O)N[C@@H](CCC(N)=O)C(=O)N[C@@H](CC(C)C)C(N)=O [HIF2α T528M] (Ac-ELDLEMLAPYIPMDGEDFQL-NH2) | intermediate affinity
3 | CC[C@H](C)[C@H](NC(=O)[C@H](Cc1c[nH]cn1)NC(=O)[C@@H]1CCCN1C(=O)[C@H](C)NC(=O)[C@H](CC(C)C)NC(=O)[C@@H](NC(=O)[C@H](CCC(=O)O)NC(=O)[C@H](CC(C)C)NC(=O)[C@H](CC(=O)O)NC(=O)[C@H](CC(C)C)NC(=O)[C@H](CCC(=O)O)NC(C)=O)[C@@H](C)O)C(=O)N1CCC[C@H]1C(=O)N[C@@H](CCSC)C(=O)N[C@@H](CC(=O)O)C(=O)NCC(=O)N[C@@H](CCC(=O)O)C(=O)N[C@@H](CC(=O)O)C(=O)N[C@@H](Cc1ccccc1)C(=O)N[C@@H](CCC(N)=O)C(=O)N[C@@H](CC(C)C)C(N)=O [HIF2α Y532H] (Ac-ELDLETLAPHIPMDGEDFQL-NH2) | near wild-type affinity
4 | HIF2α Y532C: Class 1 mutant HIF2α-CODD peptide (Ac-ELDLETLAPCIPMDGEDFQL-NH2) | strongly detrimental to the interaction of PHD2 with HIF2α-CODD

Same assay, conditions: MST; 25 nM Alexa 647-labeled PHD2, Tris–HCl with NOG (1 mM NOG, 10 µM FeSO4, 5 mg/ml BSA in 2x MST Buffer pH 7.5), peptide in Tris pH 8.0, room temperature, 10 min incubation; 1:1 Kd model; triplicate measurements; highest concentration omitted for Y532H and P531A (aggregation)

Row | Molecule | Kd (MST-determined PHD2/HIFα-CODD complex dissociation constant)
5 | HIF2α L529P: Class 1 mutant HIF2α-CODD peptide (Ac-ELDLETPAPYIPMDGEDFQL-NH2) | No binding
6 | HIF2α P531L: Class 1 mutant HIF2α-CODD peptide (Ac-ELDLETLALYIPMDGEDFQL-NH2) | No binding
7 | HIF2α P531S: Class 1 mutant HIF2α-CODD peptide (Ac-ELDLETLASYIPMDGEDFQL-NH2) | No binding

Same assay, conditions: MST; target WT-PHD2(181-426), TargetConcentration 2.5e-8; ligand HIF2a-CODD peptide; MST-Power Medium, Excitation-Power 20 Nano - RED; hot region 19 to 20; unit of Kd not printed (doses of the same sheet are in M); Fig. 1c source data

Row | Molecule | Kd (Fit Results, Fit Model Kd)
8 | HIF2α L529P: Class 1 mutant HIF2α-CODD peptide (Ac-ELDLETPAPYIPMDGEDFQL-NH2) | 0.01043
9 | HIF2α P531S: Class 1 mutant HIF2α-CODD peptide (Ac-ELDLETLASYIPMDGEDFQL-NH2) | 0.01316

Same assay, conditions: fold of the HIF2α WT Kd, MST

Row | Molecule | Kd relative to WT HIF2α-CODD
10 | CC[C@H](C)[C@H](NC(=O)[C@H](Cc1ccc(O)cc1)NC(=O)[C@@H]1CCCN1C(=O)[C@H](C)NC(=O)[C@H](CC(C)C)NC(=O)[C@@H](NC(=O)[C@H](CCC(=O)O)NC(=O)[C@H](CC(C)C)NC(=O)[C@H](CC(=O)O)NC(=O)[C@H](CC(C)C)NC(=O)[C@H](CCC(=O)O)NC(C)=O)[C@@H](C)O)C(=O)N1CCC[C@H]1C(=O)N[C@@H](CCSC)C(=O)N[C@@H](CC(=O)O)C(=O)N[C@@H](Cc1c[nH]c2ccccc12)C(=O)N[C@@H](CCC(=O)O)C(=O)N[C@@H](CC(=O)O)C(=O)N[C@@H](Cc1ccccc1)C(=O)N[C@@H](CCC(N)=O)C(=O)N[C@@H](CC(C)C)C(N)=O [HIF2α G537W] (Ac-ELDLETLAPYIPMDWEDFQL-NH2) | 2.4 × WT
11 | CC[C@H](C)[C@H](NC(=O)[C@H](Cc1c[nH]cn1)NC(=O)[C@@H]1CCCN1C(=O)[C@H](C)NC(=O)[C@H](CC(C)C)NC(=O)[C@@H](NC(=O)[C@H](CCC(=O)O)NC(=O)[C@H](CC(C)C)NC(=O)[C@H](CC(=O)O)NC(=O)[C@H](CC(C)C)NC(=O)[C@H](CCC(=O)O)NC(C)=O)[C@@H](C)O)C(=O)N1CCC[C@H]1C(=O)N[C@@H](CCSC)C(=O)N[C@@H](CC(=O)O)C(=O)NCC(=O)N[C@@H](CCC(=O)O)C(=O)N[C@@H](CC(=O)O)C(=O)N[C@@H](Cc1ccccc1)C(=O)N[C@@H](CCC(N)=O)C(=O)N[C@@H](CC(C)C)C(N)=O [HIF2α Y532H] (Ac-ELDLETLAPHIPMDGEDFQL-NH2) | 1.2 × WT

Target: T2, Alexa 647 labeled PHD2 (catalytic / prolyl-hydroxylase domain, residues 181-426) (human, UniProt Q9GZT9 181-426, Alexa Fluor 647 N-hydroxysuccinimide ester dye, 1-2 dye molecules per protein molecule)
T2 construct: PHD2, prolyl-hydroxylase domain (catalytic domain), residues 181-426, from pET-46-HIS6-PHD2; Same construct as m2, dye-labeled for MST; also called PHD2-647; source: E. coli BL21(DE3), purified (Ni-NTA, thrombin cleavage, Superdex 75), labeled with Alexa Fluor 647 NHS ester
T2 sequence (Q9GZT9 181-426): as the sequence (Q9GZT9 181-426) above
Test: MST; 25 nM Alexa 647 labeled PHD2, unlabeled peptide in 16 two-fold dilutions; room temperature; MST Buffer 50 mM Tris-HCl pH 7.5, 1 mM NOG, 10 µM FeSO4, 5 mg/ml BSA mixed 1:1 with peptide in 50 mM Tris-HCl pH 8.0; 1:1 Kd model; triplicate
Details: both partners purified

Row | Molecule | Kd
12 | B1 | 627 ± 126 µM
13 | B2 | 221 ± 19 µM
14 | B3 | 41 ± 5 µM
